The target of the assay is prefusion conformation-stabilized SARS-CoV-2 spike ectodomain (S2P_(ecto)) with AviTag and 8x-His tag (SARS-CoV-2) (UniProt P0DTC2). Nature of the assay: ELISA.

Substance “COV2-2130 (human mAb, recombinant IgG1) (antibody)” yielded a percent inhibition of hACE2 binding to S2P (ecto) at 500 ng/mL of 100%.
